The values that follow come from patent US20150098945A1 (Daiichi Sankyo, published 2015).

This assay deals with T1, recombinant human ROBO4 extracellular region polypeptide rROBO4-ECD (human, UniProt Q8WZ75 28-461).
T1 construct: Expressed from pEF6/V5-His-TOPO in FreeStyle 293-F cells; also called human ROBO4-ECD
T1 sequence: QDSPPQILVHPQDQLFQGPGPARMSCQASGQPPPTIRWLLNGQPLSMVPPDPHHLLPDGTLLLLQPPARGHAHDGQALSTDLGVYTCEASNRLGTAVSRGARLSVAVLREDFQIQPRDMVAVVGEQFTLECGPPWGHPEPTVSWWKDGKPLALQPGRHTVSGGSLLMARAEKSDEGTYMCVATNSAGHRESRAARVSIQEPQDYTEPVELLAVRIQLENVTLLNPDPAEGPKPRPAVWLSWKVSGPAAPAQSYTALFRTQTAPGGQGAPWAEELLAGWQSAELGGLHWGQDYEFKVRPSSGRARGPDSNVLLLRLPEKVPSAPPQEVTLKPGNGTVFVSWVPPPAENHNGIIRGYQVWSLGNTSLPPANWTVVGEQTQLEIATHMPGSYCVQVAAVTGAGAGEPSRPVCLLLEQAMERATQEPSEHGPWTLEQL
As to the kind of experiment: SPR (Biacore 3000), antibody captured via anti-human IgG on CM5, rROBO4-ECD as analyte, 1:1 model. On the procedure:
The dissociation constant between each antibody and rROBO4-ECD was determined with the antibody immobilized as a ligand and the antigen as an analyte using Biacore 3000 (manufactured by GE Healthcare Bio-Sciences Corp.). Approximately 80 RU of the antibody was bound via an anti-human IgG antibody (manufactured by GE Healthcare Bio-Sciences Corp.) immobilized on a sensor chip CM5 (manufactured by GE Healthcare Bio-Sciences Corp.) by an amine coupling method. The running buffer used was PBS containing 0.05% Surfactant P20. Dilution series solutions (0.1-200 nM) of the antigen were added at a flow rate of 30 μL/min. for 300 seconds onto the antibody-bound chip. Subsequently, a dissociation phase was monitored for 300 seconds. 3 M MgCl₂ was added thereto as a regeneration solution at a flow rate of 10 μL/min. for 30 seconds. Data was analyzed using the 1:1 binding model of analysis software (BIAevaluation Software, version 4.1) to calculate an association rate constant kon, a dissociation rate constant koff, and a dissociation constant (KD; KD=koff/kon).

A word on the Kd: it is the equilibrium constant for the complex coming apart.

B1: humanized MAb1 antibody H-1040 (antibody, human IgG2, kappa, V domains shown)
VH: EVQLVESGGGLVQPGGSLRLSCAASGFTFSTYAMSWVRQAPGKGLEWVATISNGGTYTYYPDSVKGRFTISRDNAKNTLYLQMNSLRAEDTAVYYCARLIYYDYLDYWGQGTLVTVSS
VL: DIVMTQSPLSLPVTLGEPASISCRSSQSLENSNGNTYLNWYLQKPGQSPQLLIYRVSNRFSGVPDRFSGSGSGTDFTLKISRVEAEDVGVYYCLQVTHVPWTFGPGTKVDIKR
notes: Human IgG2 / kappa constant regions; also called hMAb1-H1-type heavy chain + hMAb1-L1-type light chain
In the case of B1, the Kd was 0.41 nM.

B2: humanized MAb1 antibody H-2040 (antibody, human IgG2, kappa, V domains shown)
VH: EVQLVESGGGLVQPGGSLRLSCAASGFTFSTYAMSWVRQAPGKRLEWVATISNGGTYTYYPDSVKGRFTISRDNAKNTLYLQMNSLRAEDTAVYYCARLIYYDYLDYWGQGTLVTVSS
VL: DIVMTQSPLSLPVTLGEPASISCRSSQSLENSNGNTYLNWYLQKPGQSPQLLIYRVSNRFSGVPDRFSGSGSGTDFTLKISRVEAEDVGVYYCLQVTHVPWTFGPGTKVDIKR
notes: Human IgG2 / kappa constant regions; also called hMAb1-H3-type heavy chain + hMAb1-L1-type light chain
As for B2, the equilibrium dissociation constant (Kd) was 0.4 nM.
